Assay [1] addresses NHR peptide N46 (aa 536-581 of NHR) (HIV-1) (UniProt P04578). The assay is described as follows: ELISA; inhibition of 6-HB formation between N46 and C34. Background: In an ELISA, binding on a coated surface is turned into a signal by an enzyme label.
Assay [2] has as its target gp41 A6V (T2635-resistant HIV-1 strain) (HIV-1).
Assay [3] has as its target gp41 H3C (T2635-resistant HIV-1 strain) (HIV-1).
The target of assay [4] is gp41 K154Q (T2635-resistant HIV-1 strain) (HIV-1).
Assay [5] has as its target gp41 K90E (T2635-resistant HIV-1 strain) (HIV-1).
Assay [6] concerns the target gp41 K90E/N126K (T2635-resistant HIV-1 strain) (HIV-1).
Assay [7] addresses gp41 N113E (T2635-resistant HIV-1 strain) (HIV-1).
The target of assay [8] is gp41 N126K (T2635-resistant HIV-1 strain) (HIV-1).
For assay [9], the target named is gp41 Q66R (T2635-resistant HIV-1 strain) (HIV-1).
The target in assay [10] is gp41 Q66R/N113E (T2635-resistant HIV-1 strain) (HIV-1).
Assay [11] concerns the target gp41 Q79E (T2635-resistant HIV-1 strain) (HIV-1).
The target of assay [12] is gp41 Q79E/N126K (T2635-resistant HIV-1 strain) (HIV-1).
For assay [13], the target named is gp41 of the wild-type virus of the T2635-resistant panel (HIV-1).
The target of assay [14] is gp41 D36G/E49K/N126K (HP23-resistant HIV-1 strain) (HIV-1).
The target in assay [15] is gp41 E49K (HP23-resistant HIV-1 strain) (HIV-1).
Assay [16] has as its target gp41 E49K/N126K (HP23-resistant HIV-1 strain) (HIV-1).
The target of assay [17] is gp41 L34S/D36G/E49K/E136G (HP23-resistant HIV-1 strain) (HIV-1).
The target in assay [18] is gp41 V38A (T20-resistant HIV-1 strain) (HIV-1).
In assay [19] the target is gp41 V38A, N42D (T20-resistant HIV-1 strain) (HIV-1).
In assay [20] the target is gp41 V38A, N42T (T20-resistant HIV-1 strain) (HIV-1).
Assay [21] has as its target gp41 V38E, N42S (T20-resistant HIV-1 strain) (HIV-1).
Assay [22] concerns the target gp41 of the WT virus of the T20-resistant panel (HIV-1).
The target of assay [23] is gp41 of the wild-type virus of the HP23-resistant panel (HIV-1).
The target in assay [24] is NHR peptide N46 (aa 536-581 of NHR) (HIV-1) (UniProt P04578). The assay is described as follows: thermal denaturation followed by circular dichroism. In general terms: CD spectra are sensitive to the conformation of chiral molecules.
NHR peptide N46 (aa 536-581 of NHR) (HIV-1), sequence (P04578 536-581): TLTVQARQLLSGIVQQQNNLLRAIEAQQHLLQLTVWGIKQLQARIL

Here are results for two substances from paper PMC6150406, “Adding an Artificial Tail—Anchor to a Peptide-Based HIV-1 Fusion Inhibitor for Improvement of Its Potency and Resistance Profile” (Molecules : A Journal of Synthetic Chemistry and Natural …, 2017).

pIC50: −log10 of the molar value. Where only a bound is given, the exact number is not on record here.

A word on the pIC50: it is −log10 of the IC50, conventionally taken in molar units. Consider HP23, for which, in assay [1], the pIC50 was 5.43.

In the case of HP23 (peptide), in assay [2], the IC50, inhibition of HIV-1 infection (p24 ELISA), T2635-resistant panel, virus A6V; blocks gp41 NHR-CHR 6-HB formation is 1.6 nM. The substance also displayed an IC50, inhibition of HIV-1 infection (p24 ELISA), T2635-resistant panel, virus H3C; blocks gp41 NHR-CHR 6-HB formation in assay [3] of 5.4 nM. Moreover, in [4], the IC50, inhibition of HIV-1 infection (p24 ELISA), T2635-resistant panel, virus K154Q; blocks gp41 NHR-CHR 6-HB formation stood at 7.4 nM. Moreover, the IC50, inhibition of HIV-1 infection (p24 ELISA), T2635-resistant panel, virus K90E; blocks gp41 NHR-CHR 6-HB formation in assay [5] worked out at 9.4 nM. Besides, the IC50, inhibition of HIV-1 infection (p24 ELISA), T2635-resistant panel, virus K90E/N126K; blocks gp41 NHR-CHR 6-HB formation in [6] stood at 4.2 nM. In assay [7], the IC50, inhibition of HIV-1 infection (p24 ELISA), T2635-resistant panel, virus N113E; blocks gp41 NHR-CHR 6-HB formation was 2.3 nM. The substance also gave an IC50, inhibition of HIV-1 infection (p24 ELISA), T2635-resistant panel, virus N126K; blocks gp41 NHR-CHR 6-HB formation in [8] of 8.6 nM. Further, the IC50, inhibition of HIV-1 infection (p24 ELISA), T2635-resistant panel, virus Q66R; blocks gp41 NHR-CHR 6-HB formation in [9] was found to be 2.8 nM. The substance further yielded an IC50, inhibition of HIV-1 infection (p24 ELISA), T2635-resistant panel, virus Q66R/N113E; blocks gp41 NHR-CHR 6-HB formation in assay [10] of 3.6 nM. This substance gave an IC50, inhibition of HIV-1 infection (p24 ELISA), T2635-resistant panel, virus Q79E; blocks gp41 NHR-CHR 6-HB formation in assay [11] of 4.2 nM. This substance gave an IC50, inhibition of HIV-1 infection (p24 ELISA), T2635-resistant panel, virus Q79E/N126K; blocks gp41 NHR-CHR 6-HB formation in [12] of 5.2 nM. In [13], this substance displayed an IC50, inhibition of HIV-1 infection (p24 ELISA), T2635-resistant panel, virus wild-type; blocks gp41 NHR-CHR 6-HB formation of 2.8 nM. In assay [14], this substance showed an IC50, inhibition of HIV-1 infection (p24 ELISA), HP23-resistant panel, virus D36G/E49K/N126K; blocks gp41 NHR-CHR 6-HB formation of over 60 nM. Besides, the IC50, inhibition of HIV-1 infection (p24 ELISA), HP23-resistant panel, virus E49K; blocks gp41 NHR-CHR 6-HB formation in assay [15] is 13.4 nM. Further, the IC50, inhibition of HIV-1 infection (p24 ELISA), HP23-resistant panel, virus E49K/N126K; blocks gp41 NHR-CHR 6-HB formation in [16] was 53.8 nM. In assay [17], the IC50, inhibition of HIV-1 infection (p24 ELISA), HP23-resistant panel, virus L34S/D36G/E49K/E136G; blocks gp41 NHR-CHR 6-HB formation was over 60 nM. Moreover, in assay [18], the IC50, inhibition of HIV-1 infection (p24 ELISA), T20-resistant panel, virus V38A; blocks gp41 NHR-CHR 6-HB formation was 2.1 nM. The IC50, inhibition of HIV-1 infection (p24 ELISA), T20-resistant panel, virus V38A, N42D; blocks gp41 NHR-CHR 6-HB formation in assay [19] was found to be 2.9 nM. In [20], the IC50, inhibition of HIV-1 infection (p24 ELISA), T20-resistant panel, virus V38A, N42T; blocks gp41 NHR-CHR 6-HB formation amounted to 1.5 nM. In addition, in [21], the IC50, inhibition of HIV-1 infection (p24 ELISA), T20-resistant panel, virus V38E, N42S; blocks gp41 NHR-CHR 6-HB formation was 6.2 nM. Also, the IC50, inhibition of HIV-1 infection (p24 ELISA), T20-resistant panel, virus WT; blocks gp41 NHR-CHR 6-HB formation in assay [22] was 3.1 nM. In assay [23], this substance yielded an IC50, inhibition of HIV-1 infection (p24 ELISA), HP23-resistant panel, virus wild-type; blocks gp41 NHR-CHR 6-HB formation of 3.3 nM. The Tm of the 6-HB formed with N46 in assay [24] turned out to be 81 °C.
